B1: peptide HD2 (from tick evasin EVA4) / CCL4 (biotinylated, synthetic) (parent complex)
chain 1: EEDDYTAYAPLTCYFT
chain 2: APMGSDPPTACCFSYTARKLPRNFVVDYYETSSLCSQPAVVFQTKRSKQVCADPSESWVQEYVYDLELN

Variants of B1 are the subject of the experiment.
In the case of chain 1 EEDDYTAYAPLTCYYT, the enrichment is 0.0726 log2 (difference from the parental peptide).
As for chain 1 EEDDYTAYAPLTCYET, the figure is -1.26 log2 (difference from the parental peptide).
As for chain 1 EEDDYTAYAPLTCYTT, the figure is 1.23 log2 (difference from the parental peptide).
As for chain 1 EEDDYTAYAPLTCYNT, the figure is -0.875 log2 (difference from the parental peptide).
On to chain 1 EEDDYTAEAPLTCYFT, for which the enrichment was -5.75 log2 (difference from the parental peptide).
chain 1 EEDDYTALAPLTCYFT: the enrichment is -7.61 log2 (difference from the parental peptide).
Then chain 1 EEDDYTASAPLTCYFT, with -2.96 log2 (difference from the parental peptide); and chain 1 EEDDYTATAPLTCYFT, with -6.05 log2 (difference from the parental peptide); and chain 1 EEDDYTKYAPLTCYFT, with 1.68 log2 (difference from the parental peptide).
Then chain 1 EEDDYTVYAPLTCYFT, with -1.76 log2 (difference from the parental peptide); and chain 1 EEDDYTPYAPLTCYFT, with 1.22 log2 (difference from the parental peptide).
Then chain 1 EEDDYTLYAPLTCYFT, with -0.0909 log2 (difference from the parental peptide).
Turning to chain 1 EEDDYTAYAPLTCYFA, the enrichment is 1.47 log2 (difference from the parental peptide).
As for chain 1 EEDDYTAYAPLTCYFC, the figure is -0.0497 log2 (difference from the parental peptide); as for chain 1 EEDDYTAYAPLTCYFW, -0.489 log2 (difference from the parental peptide); as for chain 1 EEDDYTAYAPLTCYFF, -0.0684 log2 (difference from the parental peptide).
As for chain 1 EEDDCTAYAPLTCYFT, the figure is -8.73 log2 (difference from the parental peptide); as for chain 1 EEDDPTAYAPLTCYFT, -6.3 log2 (difference from the parental peptide).
Turning to chain 1 EEDDSTAYAPLTCYFT, the enrichment was -5.86 log2 (difference from the parental peptide).
Then chain 1 EEDDFTAYAPLTCYFT, with 0.426 log2 (difference from the parental peptide).
Then chain 1 EEDDYTAYAPLTTYFT, with -4.09 log2 (difference from the parental peptide); and chain 1 EEDDYTAYAPLTEYFT, with -9.5 log2 (difference from the parental peptide).
As for chain 1 EEDDYTAYAPLTMYFT, the figure is -2.33 log2 (difference from the parental peptide).
chain 1 EEDDYTAYAPLTKYFT: the enrichment was -8.69 log2 (difference from the parental peptide).
Then chain 1 EEDDYTAYAPHTCYFT, with 1.71 log2 (difference from the parental peptide); and chain 1 EEDDYTAYADLTCYFT, with -2.89 log2 (difference from the parental peptide); and chain 1 EEDDYTAYAQLTCYFT, with -4.96 log2 (difference from the parental peptide).
Then chain 1 PEDDYTAYAPLTCYFT, with -1.59 log2 (difference from the parental peptide); and chain 1 EEDKYTAYAPLTCYFT, with -5.45 log2 (difference from the parental peptide); and chain 1 EEDPYTAYAPLTCYFT, with -1.94 log2 (difference from the parental peptide).
As for chain 1 EEDYYTAYAPLTCYFT, the enrichment is -0.805 log2 (difference from the parental peptide).
In the case of chain 1 EEDAYTAYAPLTCYFT, the enrichment is -3.33 log2 (difference from the parental peptide).
In the case of chain 1 ETDDYTAYAPLTCYFT, the enrichment was -2.75 log2 (difference from the parental peptide).
As for chain 1 EKDDYTAYAPLTCYFT, the figure is -3.72 log2 (difference from the parental peptide); as for chain 1 ELDDYTAYAPLTCYFT, -1.83 log2 (difference from the parental peptide).
Take chain 1 EEDDYQAYAPLTCYFT: the enrichment is 0.872 log2 (difference from the parental peptide).
Consider chain 1 EEDDYRAYAPLTCYFT, for which the enrichment was -0.342 log2 (difference from the parental peptide).
Take chain 1 EEDDYSAYAPLTCYFT: the enrichment was 2.87 log2 (difference from the parental peptide).
Take chain 1 EEDDYWAYAPLTCYFT: the enrichment was 0.361 log2 (difference from the parental peptide).
As for chain 1 EEDDYTAYAPLYCYFT, the figure is 2.43 log2 (difference from the parental peptide); as for chain 1 EEDDYTAYAPLNCYFT, 1.46 log2 (difference from the parental peptide); as for chain 1 EEDDYTAYAPLDCYFT, -0.0833 log2 (difference from the parental peptide).
For chain 1 EEDDYTAYAPLTCQFT, the enrichment was -2.97 log2 (difference from the parental peptide).
Turning to chain 1 EEDDYTAYAPLTCDFT, the enrichment was -5.1 log2 (difference from the parental peptide).
As for chain 1 EEDDYTAYAPLTCAFT, the figure is -3.96 log2 (difference from the parental peptide); as for chain 1 EEDDYTAYAPLTCNFT, -3.47 log2 (difference from the parental peptide).
As for chain 1 EEDDYTAYAPLTCPFT, the figure is -6.84 log2 (difference from the parental peptide); as for chain 1 EEDDYTAYAPLTCSFT, -3.51 log2 (difference from the parental peptide); as for chain 1 EEHDYTAYAPLTCYFT, -1.73 log2 (difference from the parental peptide).
As for chain 1 EETDYTAYAPLTCYFT, the figure is -2.72 log2 (difference from the parental peptide).
Turning to chain 1 EEYDYTAYAPLTCYFT, the enrichment was -1.16 log2 (difference from the parental peptide).
As for chain 1 EEDDYTAYLPLTCYFT, the figure is -6 log2 (difference from the parental peptide).
In the case of chain 1 EEDDYTAYRPLTCYFT, the enrichment is -1.96 log2 (difference from the parental peptide).
As for chain 1 EEDDYTAYPPLTCYFT, the figure is -7.37 log2 (difference from the parental peptide).
As for chain 1 EEDDYTAYKPLTCYFT, the figure is -3.61 log2 (difference from the parental peptide); as for chain 1 EEDDYTAYNPLTCYFT, -4.06 log2 (difference from the parental peptide).

Values taken from paper PMC11969024 (2025).
